These results are taken from PMC7452723, “How to measure and evaluate binding affinities”.

Data set [1] addresses T1, Puf4 RNA-binding domain (Saccharomyces cerevisiae, UniProt P25339 537-888).
T1 sequence: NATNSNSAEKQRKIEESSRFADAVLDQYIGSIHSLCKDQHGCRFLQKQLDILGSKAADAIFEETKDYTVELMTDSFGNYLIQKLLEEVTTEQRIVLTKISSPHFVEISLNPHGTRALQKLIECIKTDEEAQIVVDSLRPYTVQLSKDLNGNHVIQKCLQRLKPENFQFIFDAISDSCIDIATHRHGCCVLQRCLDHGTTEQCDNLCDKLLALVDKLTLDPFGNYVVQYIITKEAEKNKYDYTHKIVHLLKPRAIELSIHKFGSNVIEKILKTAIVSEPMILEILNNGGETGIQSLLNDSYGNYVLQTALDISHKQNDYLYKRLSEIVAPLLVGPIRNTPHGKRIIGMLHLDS
Nature of the data set: competition EMSA; 25 C; vs labeled Puf4_HO, 0.45 nM active Puf4; 190-210 nM across 10-110 min; 230 nM with upper limit of labeled RNA; 20 mM HEPES-Na or HEPES-K pH 7.4, 2 mM MgCl2, 100 mM KOAc, 2 mM DTT, 0.2% Tween 20, 5% glycerol, 0.1 mg/ml BSA; 25 or 0 C; native 20% gel at 4-6 C. Conditions: protein: recombinant; tags: C-terminal SNAP tag; N-terminal 6xHis removed by TEV; label: none; single strand. (In EMSA bound probe runs differently from free probe, usually more slowly.)

The target in data set [2] is T1, Puf4 RNA-binding domain. Nature of the data set: competition EMSA; 25 C; three-fold lower Puf4; 20 mM HEPES-Na or HEPES-K pH 7.4, 2 mM MgCl2, 100 mM KOAc, 2 mM DTT, 0.2% Tween 20, 5% glycerol, 0.1 mg/ml BSA; 25 or 0 C; native 20% gel at 4-6 C. The settings on record: protein: recombinant; tags: C-terminal SNAP tag; N-terminal 6xHis removed by TEV; label: none; single strand.

Data set [3] has as its target T1, Puf4 RNA-binding domain. Nature of the data set: EMSA; 25 C; hyperbolic fit; active-fraction corrected; 20 mM HEPES-Na or HEPES-K pH 7.4, 2 mM MgCl2, 100 mM KOAc, 2 mM DTT, 0.2% Tween 20, 5% glycerol, 0.1 mg/ml BSA; 25 or 0 C; native 20% gel at 4-6 C. Conditions: protein: recombinant; tags: C-terminal SNAP tag; N-terminal 6xHis removed by TEV; label: 5'-32P; single strand.

Data set [4] has as its target T1, Puf4 RNA-binding domain. Nature of the data set: EMSA; 0 C; quadratic fit; 20 mM HEPES-Na or HEPES-K pH 7.4, 2 mM MgCl2, 100 mM KOAc, 2 mM DTT, 0.2% Tween 20, 5% glycerol, 0.1 mg/ml BSA; 25 or 0 C; native 20% gel at 4-6 C. Conditions: protein: recombinant; tags: C-terminal SNAP tag; N-terminal 6xHis removed by TEV; label: 5'-32P; single strand.
Data set [5] deals with T1, Puf4 RNA-binding domain. Nature of the data set: EMSA kinetics (koff/kon); 25 C; kon 1.04e8 M-1s-1, koff 0.014 s-1; 20 mM HEPES-Na or HEPES-K pH 7.4, 2 mM MgCl2, 100 mM KOAc, 2 mM DTT, 0.2% Tween 20, 5% glycerol, 0.1 mg/ml BSA; 25 or 0 C; native 20% gel at 4-6 C. Conditions: protein: recombinant; tags: C-terminal SNAP tag; N-terminal 6xHis removed by TEV; label: 5'-32P; single strand.

Data set [6] has as its target T1, Puf4 RNA-binding domain. Nature of the data set: EMSA kinetics (koff/kon); 0 C; kon 2.85e7 M-1s-1, koff 2.92e-5 s-1; 20 mM HEPES-Na or HEPES-K pH 7.4, 2 mM MgCl2, 100 mM KOAc, 2 mM DTT, 0.2% Tween 20, 5% glycerol, 0.1 mg/ml BSA; 25 or 0 C; native 20% gel at 4-6 C. Conditions: protein: recombinant; tags: C-terminal SNAP tag; N-terminal 6xHis removed by TEV; label: 5'-32P; single strand.

The target of data set [7] is T1, Puf4 RNA-binding domain. Nature of the data set: EMSA; 25 C; quadratic fit; 20 mM HEPES-Na or HEPES-K pH 7.4, 2 mM MgCl2, 100 mM KOAc, 2 mM DTT, 0.2% Tween 20, 5% glycerol, 0.1 mg/ml BSA; 25 or 0 C; native 20% gel at 4-6 C. Conditions: protein: recombinant; tags: C-terminal SNAP tag; N-terminal 6xHis removed by TEV; label: 5'-32P; single strand.
Data set [8] concerns the target T1, Puf4 RNA-binding domain. Nature of the data set: EMSA; 25 C; direct measurement parallel to competition; corrected for 75% active protein; 20 mM HEPES-Na or HEPES-K pH 7.4, 2 mM MgCl2, 100 mM KOAc, 2 mM DTT, 0.2% Tween 20, 5% glycerol, 0.1 mg/ml BSA; 25 or 0 C; native 20% gel at 4-6 C. The settings on record: protein: recombinant; tags: C-terminal SNAP tag; N-terminal 6xHis removed by TEV; label: 5'-32P; single strand.

Data set [9] concerns the target T1, Puf4 RNA-binding domain. Nature of the data set: EMSA; 0 C; hyperbolic fit, upper limit (<=); 20 mM HEPES-Na or HEPES-K pH 7.4, 2 mM MgCl2, 100 mM KOAc, 2 mM DTT, 0.2% Tween 20, 5% glycerol, 0.1 mg/ml BSA; 25 or 0 C; native 20% gel at 4-6 C. The settings on record: protein: recombinant; tags: C-terminal SNAP tag; N-terminal 6xHis removed by TEV; label: 5'-32P; single strand.

For orientation: Kd means the equilibrium constant for the complex coming apart. For the molecule CGUAUAUUA (ssRNA) [U1C mutant competitor RNA], the figures for the Kd with Puf4 RNA-binding domain [1] and with Puf4 RNA-binding domain [2] were 204 nM and 180 nM, respectively.

In the case of AUGUGUAUAUUAGU (ssRNA) [Puf4_HO RNA], the equilibrium dissociation constant (Kd) in the data set with Puf4 RNA-binding domain [3] was 0.12 ± 0.03 nM; with Puf4 RNA-binding domain [4], 1.39 ± 0.09 pM; with Puf4 RNA-binding domain [5], 0.13 ± 0.03 nM; in the data set with Puf4 RNA-binding domain [6], 1.02 ± 0.08 pM; in the data set with Puf4 RNA-binding domain [7] it was 0.12 ± 0.03 nM; with Puf4 RNA-binding domain [8] it was 0.105 nM. The Kd in the data set with Puf4 RNA-binding domain [9] was less than 1.7 pM.
